Source: paper PMC3338861

Molecular target: purified BfpD assembly ATPase (enteropathogenic Escherichia coli (EPEC))

Q: Which stoichiometry N does the source give for purified BfpD assembly ATPase (enzyme) here?
A: 6
